Results as given in patent US20090068637A1.
Where a chain is given by its changes, count along the chain named.

Legend:
Assay in all cases: cell-based or functional assay
[1] = molecular target: HA of H5N1 virus strain A3 (avian influenza virus H5N1)
[2] = molecular target: HA of H5N1 virus strain B5 (avian influenza virus H5N1)
[3] = molecular target: HA of H5N1 virus strain A2 (avian influenza virus H5N1)
[4] = molecular target: HA of H5N1 virus strain C3 (avian influenza virus H5N1)
[5] = molecular target: HA of H5N1 virus strain A8 (avian influenza virus H5N1)
[6] = molecular target: HA of H5N1 virus strain E1 (avian influenza virus H5N1)
[7] = molecular target: HA of H5N1 virus strain B2 (avian influenza virus H5N1)
[8] = molecular target: HA of H5N1 virus strain G1 (avian influenza virus H5N1)
[9] = molecular target: HA of H5N1 virus strain B8 (avian influenza virus H5N1)
[10] = molecular target: HA of H5N1 virus strain E2 (avian influenza virus H5N1)
[11] = molecular target: HA of H5N1 virus strain A7 (avian influenza virus H5N1)
[12] = molecular target: HA of H5N1 virus strain F3 (avian influenza virus H5N1)
[13] = molecular target: HA of H5N1 virus strain H2 (avian influenza virus H5N1)
[14] = molecular target: HA of H5N1 virus strain A6 (avian influenza virus H5N1)
[15] = molecular target: HA of H5N1 virus strain D2 (avian influenza virus H5N1)
[16] = molecular target: HA of H5N1 virus strain B3 (avian influenza virus H5N1)
[17] = molecular target: HA of H5N1 virus strain A1 (avian influenza virus H5N1)
[18] = molecular target: HA of H5N1 virus strain B6 (avian influenza virus H5N1)
[19] = molecular target: HA of H5N1 virus strain F2 (avian influenza virus H5N1)
[20] = molecular target: HA of H5N1 virus strain B1 (avian influenza virus H5N1)
[21] = molecular target: HA of H5N1 virus strain D1 (avian influenza virus H5N1)
[22] = molecular target: HA of H5N1 virus strain C2 (avian influenza virus H5N1)
[23] = molecular target: HA of H5N1 virus strain B4 (avian influenza virus H5N1)
[24] = molecular target: HA of H5N1 virus strain B7 (avian influenza virus H5N1)
[25] = molecular target: HA of H5N1 virus strain A5 (avian influenza virus H5N1)
[26] = molecular target: HA of H5N1 virus strain H1 (avian influenza virus H5N1)
[27] = molecular target: HA of H5N1 virus strain MIX3 (avian influenza virus H5N1)
[28] = molecular target: HA of H5N1 virus strain HN2 (avian influenza virus H5N1)
[29] = molecular target: HA of H5N1 virus strain IDN3 (avian influenza virus H5N1)
[30] = molecular target: HA of H5N1 virus strain IDN4 (avian influenza virus H5N1)
[31] = molecular target: HA of H5N1 virus strain MIX2 (avian influenza virus H5N1)
[32] = molecular target: HA of H5N1 virus strain MIX1 (avian influenza virus H5N1)
[33] = molecular target: HA of H5N1 virus strain VNM2.1 (avian influenza virus H5N1)
[34] = molecular target: HA of H5N1 virus strain VTM3 (avian influenza virus H5N1)
[35] = molecular target: HA of H5N1 virus strain MB1 (avian influenza virus H5N1)
[36] = molecular target: HA of H5N1 virus strain VTM2 (avian influenza virus H5N1)
[37] = molecular target: HA of H5N1 virus strain IDN5 (avian influenza virus H5N1)
[38] = molecular target: HA of H5N1 virus strain MB2 (avian influenza virus H5N1)
[39] = molecular target: H5 virus strains (thirty-four strains of H5N1 viruses)
[40] = molecular target: HA of H5N1 virus strain VTM4 (avian influenza virus H5N1)
[41] = molecular target: non-H5 viruses (14 strains; H1~H13, Chicken NDV)
[42] = molecular target: HA of H5N1 virus strain GD3 (avian influenza virus H5N1)
[43] = molecular target: HA of H5N1 virus strain GD2 (avian influenza virus H5N1)
[44] = molecular target: HA of H5N1 virus strain IDN1.1 (avian influenza virus H5N1)
[45] = molecular target: HA of H5N1 virus strain IDN2 (avian influenza virus H5N1)
[46] = molecular target: HA of H5N1 virus strain VTM1.1 (avian influenza virus H5N1)
[47] = molecular target: HA of H5N1 virus strain YN1 (avian influenza virus H5N1)
[48] = molecular target: HA of H5N1 virus strain GD1 (avian influenza virus H5N1)
[49] = molecular target: HA of H5N1 virus strain HN1 (avian influenza virus H5N1)

B1: 4D1 single chain antibody (scFv)
scFv: QVQLQQPGAELVKPGASVNLSCKASGYTFTSYWMHWVKQRPGQGLEWIGEIDPSDSFTTYNQNFKDRATLTVDKSSSTAYMQLRSLTSEDSAVYYCARGGPGDFRYAMDYWGQGTSVTVSSGGGGSDILMTQSPSSMSVSLGDTVSITCHASQGISSNIGWLQQKPGKSFKGLIYHGTNLEDGVPSRFSGSGSGADYSLTISSLESEDFADYYCVQYVQFPYTFGGGTKLEIKRA
[1]
  HI titer (n) (n (dilution 2^n)): > 8
[2]
  HI titer (n) (n (dilution 2^n)): 0
[3]
  HI titer (n) (n (dilution 2^n)): > 8
[4]
  HI titer (n) (n (dilution 2^n)): > 8
[5]
  HI titer (n) (n (dilution 2^n)): > 8
[6]
  HI titer (n) (n (dilution 2^n)): 1
[7]
  HI titer (n) (n (dilution 2^n)): 0
[8]
  HI titer (n) (n (dilution 2^n)): 3.5
[9]
  HI titer (n) (n (dilution 2^n)): > 8
[10]
  HI titer (n) (n (dilution 2^n)): 1
[11]
  HI titer (n) (n (dilution 2^n)): 6
[12]
  HI titer (n) (n (dilution 2^n)): 3
[13]
  HI titer (n) (n (dilution 2^n)): 4
[14]
  HI titer (n) (n (dilution 2^n)): 7
[15]
  HI titer (n) (n (dilution 2^n)): 7.5
[16]
  HI titer (n) (n (dilution 2^n)): > 8
[17]
  HI titer (n) (n (dilution 2^n)): > 8
[18]
  HI titer (n) (n (dilution 2^n)): > 8
[19]
  HI titer (n) (n (dilution 2^n)): 5
[20]
  HI titer (n) (n (dilution 2^n)): > 8
[21]
  HI titer (n) (n (dilution 2^n)): > 8
[22]
  HI titer (n) (n (dilution 2^n)): > 8
[23]
  HI titer (n) (n (dilution 2^n)): > 8
[24]
  HI titer (n) (n (dilution 2^n)): > 8
[25]
  HI titer (n) (n (dilution 2^n)): > 8
[26]
  HI titer (n) (n (dilution 2^n)): 6

B2: monoclonal antibody 3C8 (antibody, V domains shown)
VH: QIQLVQSGPELKKPGETVKISCKASGYSFTNYGMNWVKQAPGKGLKWMGWINTYTGEPAYADDFKGRFAFSLETSASTAYLQINNLKNEDTATYFCARWNRDAMDYWGQGTSVTVSS
VL: DIVLTQSPASLAVSLGQRATISCRASESVDSSDNSLMHWYQQKPGQPPKLLIYRASNLESGIPARFSGSGSRTDFTLTINPVEADDVATYYCQQSIGDPPYTFGGGTKLEIKR
[27]
  HI titer: 400 titer
  Neutralization titer: 200 titer
[28]
  HI titer: 800 titer
  Neutralization titer: 6400 titer
[29]
  HI titer: < 100 titer
[30]
  HI titer: 6400 titer
  Neutralization titer: 12800 titer
[31]
  HI titer: 800 titer
  Neutralization titer: < 100 titer
[32]
  HI titer: 1600 titer
  Neutralization titer: 100 titer
[33]
  HI titer: < 100 titer
  Neutralization titer: < 100 titer
[34]
  HI titer: 6400 titer
  Neutralization titer: 12800 titer
[35]
  HI titer: 400 titer
[36]
  HI titer: 1600 titer
  Neutralization titer: 6400 titer
[37]
  HI titer: 6400 titer
  Neutralization titer: 6400 titer
[38]
  HI titer: 3200 titer
  Neutralization titer: 12800 titer
[39]
  HI assay: positive number/total virus number (of 34 strains): 32
[40]
  HI titer: 800 titer
  Neutralization titer: 12800 titer
[41]
  HI assay: positive number/total virus number (of 14 strains): 0
[42]
  HI titer: 3200 titer
  Neutralization titer: 200 titer
[43]
  HI titer: 12800 titer
  Neutralization titer: 12800 titer
[44]
  HI titer: 3200 titer
  Neutralization titer: 6400 titer
[45]
  HI titer: 400 titer
  Neutralization titer: 12800 titer
[46]
  HI titer: 3200 titer
  Neutralization titer: 1600 titer
[47]
  HI titer: 1600 titer
[48]
  HI titer: 6400 titer
  Neutralization titer: 12800 titer
[49]
  HI titer: 3200 titer
  Neutralization titer: 12800 titer

B3: monoclonal antibody 4D1 (antibody, V domains shown)
VH: QVQLQQPGAELVKPGASVNLSCKASGYTFTSYWMHWVKQRPGQGLEWIGEIDPSDSFTTYNQNFKDRATLTVDKSSSTAYMQLRSLTSEDSAVYYCARGGPGDFRYAMDYWGQGTSVTVSS
VL: DILMTQSPSSMSVSLGDTVSITCHASQGISSNIGWLQQKPGKSFKGLIYHGTNLEDGVPSRFSGSGSGADYSLTISSLESEDFADYYCVQYVQFPYTFGGGTKLEIKR
[27]
  HI titer: 12800 titer
  Neutralization titer: 12800 titer
[28]
  HI titer: 3200 titer
  Neutralization titer: 12800 titer
[29]
  HI titer: 6400 titer
  Neutralization titer: 12800 titer
[30]
  HI titer: 12800 titer
  Neutralization titer: 12800 titer
[31]
  HI titer: 12800 titer
  Neutralization titer: 12800 titer
[32]
  HI titer: 12800 titer
  Neutralization titer: 12800 titer
[33]
  HI titer: 400 titer
  Neutralization titer: 1600 titer
[34]
  HI titer: 12800 titer
  Neutralization titer: 12800 titer
[35]
  HI titer: 3200 titer
  Neutralization titer: 6400 titer
[36]
  HI titer: 3200 titer
  Neutralization titer: 3200 titer
[37]
  HI titer: 12800 titer
  Neutralization titer: 12800 titer
[38]
  HI titer: 6400 titer
  Neutralization titer: 12800 titer
[39]
  HI assay: positive number/total virus number (of 34 strains): 34
[40]
  HI titer: 400 titer
  Neutralization titer: 1600 titer
[41]
  HI assay: positive number/total virus number (of 14 strains): 0
[42]
  HI titer: 12800 titer
  Neutralization titer: 12800 titer
[43]
  HI titer: 800 titer
  Neutralization titer: 12800 titer
[44]
  HI titer: 12800 titer
  Neutralization titer: 12800 titer
[45]
  HI titer: 800 titer
  Neutralization titer: 12800 titer
[46]
  HI titer: 3200 titer
  Neutralization titer: 1600 titer
[47]
  HI titer: 6400 titer
  Neutralization titer: 12800 titer
[48]
  HI titer: 12800 titer
  Neutralization titer: 12800 titer
[49]
  HI titer: 12800 titer
  Neutralization titer: 12800 titer

B4: monoclonal antibody 10F7 (antibody, V domains shown)
VH: B3 VH with N19K, F57Y, T59N, N63K, D66G, R67K, R84S, P101T, R105H
VL: B3 VL
[27]
  HI titer: 12800 titer
  Neutralization titer: 12800 titer
[28]
  HI titer: 1600 titer
  Neutralization titer: 12800 titer
[29]
  HI titer: 1600 titer
  Neutralization titer: 12800 titer
[30]
  HI titer: 12800 titer
  Neutralization titer: 12800 titer
[31]
  HI titer: 12800 titer
  Neutralization titer: 12800 titer
[32]
  HI titer: 12800 titer
  Neutralization titer: 12800 titer
[33]
  HI titer: 3200 titer
  Neutralization titer: 200 titer
[34]
  HI titer: 12800 titer
  Neutralization titer: 12800 titer
[35]
  HI titer: 6400 titer
  Neutralization titer: 12800 titer
[36]
  HI titer: 1600 titer
  Neutralization titer: 3200 titer
[37]
  HI titer: 6400 titer
  Neutralization titer: 12800 titer
[38]
  HI titer: 12800 titer
  Neutralization titer: 12800 titer
[39]
  HI assay: positive number/total virus number (of 34 strains): 34
[40]
  HI titer: 400 titer
  Neutralization titer: 200 titer
[41]
  HI assay: positive number/total virus number (of 14 strains): 0
[42]
  HI titer: 12800 titer
  Neutralization titer: 12800 titer
[43]
  HI titer: 12800 titer
  Neutralization titer: 12800 titer
[44]
  HI titer: 12800 titer
  Neutralization titer: 12800 titer
[45]
  HI titer: 1600 titer
  Neutralization titer: 12800 titer
[46]
  HI titer: 3200 titer
  Neutralization titer: 3200 titer
[47]
  HI titer: 3200 titer
  Neutralization titer: 12800 titer
[48]
  HI titer: 6400 titer
  Neutralization titer: 12800 titer
[49]
  HI titer: 12800 titer
  Neutralization titer: 12800 titer

B5: monoclonal antibody 8H5 (antibody, V domains shown)
VH: QVQLQQSGAELMKPGASVKISCKATGYTFSNYWIEWIKQRPGHGLEWIGEILPGSDRTNYNGKFKGKATFTADTSSNTAHMQLSSLTSEDSAVYYCANRYDGYYFGLDYWGQGTSVAVSS
VL: EIVLTQSPAIMSASLGEKVTMSCRASSSVNFVYWYQQRSDASPKLLIYYSSNLAPGVPPRFSGSGSGNSYSLTISGLEGEDAATYYCQHFTSSPYTFGGGTNLEIKR
[41]
  HI assay: positive number/total virus number (of 14 strains): 0
